{"source": "patent US7314724B2", "about": "“Therapeutic applications of laminin and laminin-derived protein fragments” (University of Washington, priority 1996, dated 2008)", "key": {"[1]": {"biological_target": "T1, Aβ (1-40) (Homo sapiens, UniProt P05067)", "T1 construct": "2 μg of Aβ (1-40)(Bachem Inc., Torrance, Calif. USA; Lot #WM365); purchased Bachem Inc., Torrance, Calif; Lot #WM365", "T1 sequence (P05067 672-711 limits assumed)": "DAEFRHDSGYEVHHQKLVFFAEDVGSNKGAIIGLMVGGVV", "assay": "Solid phase binding immunoassay of laminin to substrate bound Aβ (1-40)", "settings": "one-site model, single binding constant; read-out: apparent dissociation constant Kd, binding to immobilized Aβ (1-40)", "protocol": "2 μg of Aβ (1-40)(Bachem Inc., Torrance, Calif. USA; Lot #WM365) in 40 μl of Tris-buffered saline (TBS)(pH 7.0) was allowed to bind overnight at 4° C. to microtiter wells (Nunc plates, Maxisorb). The next day all of the microtiter wells were blocked by incubating with 300 μl of Tris-buffered saline containing 100 mM Tris-HCl, 50 MM NaCl, 0.05% Tween-20, and 3 mM NaN3 (pH 7.4)(TTBS) plus 2% bovine serum albumin (BSA). Various dilutions (ie. 1:10, 1:30, 1:90, 1:270, 1:810, 1:2430 and 1:7290) of Engelbreth-Holm-Swarm (EHS) mouse tumor laminin (1 mg/ml)(Sigma Chemical Co., St. Louis, Mo., USA) in 250 μl of TBS (pH 7.4) were placed in wells (in triplicate) either containing substrate bound Aβ (1-40) or blank, and allowed to bind overnight at 4° C. overnight. […] The reaction was stopped with 50 μl of 4N H2SO4 and read on a Model 450 microplate reader (Biorad, Hercules, Calif. USA) at 490 nm. Data points representing a mean of triplicate determinations were plotted and the affinity constants (ie. Kd) were determined using Ultrafit (version 2.1, Biosoft, Cambridge, U.K.) as described below.\nThe binding data were analyzed assuming a thermodynamic equilibrium for the formation of the complex BL, from the laminin ligand in solution, L, and the uncomplexed Aβ adsorbed to the microtiter well, B, according to the equation: Kd=[B]×[L]/[BL]. […]"}, "[2]": {"biological_target": "T2, islet amyloid polypeptide (amylin) (Homo sapiens, UniProt P10997)", "T2 construct": "The major protein in islet amyloid is a 37 amino acid peptide, termed islet amyloid polypeptide or amylin", "T2 sequence (P10997 34-70)": "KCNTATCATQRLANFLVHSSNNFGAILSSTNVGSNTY", "assay": "Thioflavin T fluorometry, islet amyloid polypeptide (amylin) fibril formation", "format": "biochemical"}}, "note": "“Also recorded” adds a separate entry of the source.", "data": [{"substance": "laminin: Engelbreth-Holm-Swarm (EHS) mouse tumor laminin (Sigma); 850 kDa basement membrane glycoprotein of A, B1 and B2 chains", "values": [{"measurement": "Kd", "setting": "[1]", "result": 2.7, "unit": "nM"}, {"measurement": "inhibition of amylin fibrillogenesis, in words", "setting": "[2]; 40 nM, 15 nM and 5 nM laminin, 1 week (FIG. 6)", "result": "no significant inhibition"}, {"measurement": "inhibition of amylin fibril formation, in words", "setting": "[2]; 100 nM laminin, all time points within 1 week (FIG. 6)", "result": "did not significantly inhibit; also recorded: does not significantly inhibit"}]}]}
